Assay in all cases: purified protein, by the assay type
Substrate in data set [1]: CC(=O)NCCCCNCCCN
Also noted: steady-state kinetics of acetylpolyamine deacetylation, discontinuous LC-MS after dansyl chloride derivatization. As to conditions: 50.0 °C. As to the method:
(§1) To study steady-state kinetics with non-fluorogenic peptide substrates and acetylpolyamines, a discontinuous LC–MS was employed based on the protocol of assaying nonfluorogenic acetyllysine peptide substrates for HDAC6 (ref. [17]). Assays were performed in triplicate. Briefly, 5 μl of enzyme (0.050–20 μM) in HEPES buffer (20 mM HEPES (pH 7.5), 100 mM NaCl, 5 mM KCl, 1 mM MgCl2) was added to 35 μl of substrate solution to initiate the reaction. After incubation for 15–60 min at room temperature, the reaction was quenched by addition of 50 μl of 20 mM dansyl chloride dissolved in acetonitrile followed by 10 μl of NaHCO3 (1.6 M, pH 10.0). The deacetylation products were derivatized with dansyl chloride at 50 °C for 2 hrs. The deacetylation products were detected by LC–MS using a Waters SQD equipped with an Acquity UPLC (Waters, Milford, MA, USA) and quantified by using the standard curves generated from the mass signals of the corresponding deacetylated polyamines and peptides. Inhibition of HDAC10 activity was measured by using 0.49 μM zHDAC10 with 192 μM N^8-acetylspermidine. Data were analysed by logistic regression for IC50 determination and the inhibition constant Ki was calculated based on the Cheng-Prusoff equation, Ki=IC50 / (1+[S]/KM)[45]. Assays were performed in triplicate at room temperature. We next tested the PDAC activity of hHDAC10 and zHDAC10 against several polyamine substrates using the LC–MS assay (Fig. 2, Supplementary Fig. 3 and Supplementary Table 1). […] For hHDAC10 and zHDAC10, kcat/KM=2,900±200 and 4,600±300 M^−1 s^−1, respectively; in comparison, N^1-acetylspermidine was a poor substrate with kcat/KM=24±5 and 7±2 M^−1 s^−1, respectively. Substrate specificity trends observed for zHDAC10 and hHDAC10 matched those of the previously reported mammalian N^8-acetylspermidine deacetylase activity. […] As a negative control, we examined the N^8-acetylspermidine deacetylase activity of human and zebrafish HDAC6 (ref. [17]). HDAC6 preferentially catalyses the deacetylation of the peptide substrate RGK(ac)-AMC with a catalytic efficiency >100-fold greater than that for the deacetylation of N^8-acetylspermidine. Therefore, HDAC6 is clearly an acetyllysine deacetylase and HDAC10 is an N^8-acetylspermidine deacetylase. It is notable that the molecular function of HDAC10 coincides with the cellular function of the cytosolic PDAC indicated in Fig. 1a.

Substrate in data set [2]: CC(=O)NCCCN
Also noted: steady-state kinetics of acetylpolyamine deacetylation, discontinuous LC-MS after dansyl chloride derivatization. As to conditions: 50.0 °C. As to the method: as §1

Substrate in data set [3]: CC(=O)NCCCCCN
More on the design: steady-state kinetics of acetylpolyamine deacetylation, discontinuous LC-MS after dansyl chloride derivatization. Particulars: 50.0 °C. As to the method: as §1

Substrate in data set [4]: CC(=O)NCCCNCCCCNCCCN
More on the design: steady-state kinetics of acetylpolyamine deacetylation, discontinuous LC-MS after dansyl chloride derivatization. Particulars: 50.0 °C. The procedure: as §1

Substrate in data set [5]: CC(=O)NCCCCCCCCN
Also noted: steady-state kinetics of acetylpolyamine deacetylation, discontinuous LC-MS after dansyl chloride derivatization. Particulars: 50.0 °C. As to the method: as §1

Substrate in data set [6]: CC(=O)NCCCNCCCCN
Also noted: steady-state kinetics of acetylpolyamine deacetylation, discontinuous LC-MS after dansyl chloride derivatization. As to conditions: 50.0 °C. The procedure: as §1

Substrate in data set [7]: CC(=O)NCCCC[C@H](NC(C)=O)C(N)=O
More on the design: discontinuous LC-MS deacetylation assay, dansylated product quantified, steady-state kinetics. Particulars: 50.0 °C. As to the method: To study steady-state kinetics with non-fluorogenic peptide substrates and acetylpolyamines, a discontinuous LC–MS was employed based on the protocol of assaying nonfluorogenic acetyllysine peptide substrates for HDAC6 (ref. [17]). Assays were performed in triplicate. Briefly, 5 μl of enzyme (0.050–20 μM) in HEPES buffer (20 mM HEPES (pH 7.5), 100 mM NaCl, 5 mM KCl, 1 mM MgCl2) was added to 35 μl of substrate solution to initiate the reaction. After incubation for 15–60 min at room temperature, the reaction was quenched by addition of 50 μl of 20 mM dansyl chloride dissolved in acetonitrile followed by 10 μl of NaHCO3 (1.6 M, pH 10.0). The deacetylation products were derivatized with dansyl chloride at 50 °C for 2 hrs. The deacetylation products were detected by LC–MS using a Waters SQD equipped with an Acquity UPLC (Waters, Milford, MA, USA) and quantified by using the standard curves generated from the mass signals of the corresponding deacetylated polyamines and peptides. Inhibition of HDAC10 activity was measured by using 0.49 μM zHDAC10 with 192 μM N^8-acetylspermidine. Data were analysed by logistic regression for IC50 determination and the inhibition constant Ki was calculated based on the Cheng-Prusoff equation, Ki=IC50 / (1+[S]/KM)[45]. Assays were performed in triplicate at room temperature.

Substrate in data set [8]: CC(=O)NCCCC[C@H](NC(=O)[C@H](C)NC(=O)CNC(C)=O)C(=O)Nc1ccc2c(C)cc(=O)oc2c1
Also noted: fluorogenic AMC-conjugated acetyllysine peptide deacetylation, steady-state kinetics. The source says:
To determine steady-state kinetic parameters for the hydrolysis of a variety of acetylpolyamine and acetyllysine substrates, we prepared full-length recombinant HDAC10 from human (H. sapiens, hHDAC10) and zebrafish (D. rerio, zHDAC10). The CDs of these orthologues are highly similar based on 63%/79% sequence identity/similarity; only full-length constructs yielded soluble proteins. We first assayed the lysine deacetylase activity of these constructs against two commercially available aminomethylcoumarin (AMC)-conjugated fluorogenic acetyllysine peptides, GAK(ac)-AMC and RGK(ac)-AMC (molecular structures of all substrates are shown in Supplementary Fig. 2). […] These measurements were consistent with earlier studies reporting that HDAC10 activity was not measurable using fluorogenic peptide substrates. We also tested activity with 11 non-fluorogenic acetyllysine substrates using a […] chromatography–mass spectrometry (LC–MS)-based discontinuous assay[17] to avoid potential steric clashes that might occur with the bulky AMC group. These substrates included K(ac)NL and GAK(ac)NLQ, which mimic the peptide segment containing K73 in the proposed HDAC10 substrate MutS homologue 2 (MSH2)[22]. Again, we observed no or very low catalytic activity (Fig. 2 and Supplementary Table 1). In comparison with its closest relative, the cytosolic isozyme HDAC6 (ref. [17]), HDAC10 was clearly not an efficient lysine deacetylase.

Substrate in data set [9]: CC(=O)NCCCCN
More on the design: steady-state kinetics of acetylpolyamine deacetylation, discontinuous LC-MS after dansyl chloride derivatization. As to conditions: 50.0 °C. As to the method: as §1

B1: acetylpolyamine amidohydrolase (APAH) (Mycoplana ramosa) (protein)
chain: MRVIFSEDHKLRNAKTELYGGELVPPFEAPFRAEWILAAVKEAGFDDVVAPARHGLETVLKVHDAGYLNFLETAWDRWKAAGYKGEAIATSFPVRRTSPRIPTDIEGQIGYYCNAAETAISPGTWEAALSSMASAIDGADLIAAGHKAAFSLCRPPGHHAGIDMFGGYCFINNAAVAAQRLLDKGAKKIAILDVDFHHGNGTQDIFYERGDVFFASLHGDPAEAFPHFLGYAEETGKGAGAGTTANYPMGRGTPYSVWGEALTDSLKRIAAFGAEAIVVSLGVDTFEQDPISFFKLTSPDYITMGRTIAASGVPLLVVMEGGYGVPEIGLNVANVLKGVAG
Broadly, the Km is the concentration of substrate that gives half-maximal velocity. Broadly, the kcat is the number of substrate molecules converted per active site and unit of time at saturation. One may read the kcat/Km as the turnover number divided by the Michaelis constant. Consider B1, for which the Michaelis constant (Km) amounted to 80 ± 20 µM in data set [1]; 180 ± 60 µM in data set [2]; 22 ± 4 µM in data set [3]; 60 ± 10 µM in data set [4]; 110 ± 20 µM in data set [5]; 70 ± 20 µM in data set [6]. The Km is 220 ± 70 µM in [7] and 120 ± 20 µM in [8]. The turnover number (kcat) was found to be 2.5 ± 0.3 s⁻¹ in data set [1]; 1.3 ± 0.2 s⁻¹ in data set [2]; 1.5 ± 0.1 s⁻¹ in [3]; 0.2 ± 0.01 s⁻¹ in data set [4]; 1.1 ± 0.1 s⁻¹ in data set [5]; 0.6 ± 0.05 s⁻¹ in [6]. Further, the kcat worked out at 0.13 ± 0.02 s⁻¹ in [7] and 0.0067 ± 0.0005 s⁻¹ in [8]. The kcat/Km came to 30000 ± 5000 M⁻¹ s⁻¹ in data set [1]; 7000 ± 1000 M⁻¹ s⁻¹ in [2]; 68000 ± 7000 M⁻¹ s⁻¹ in [3]; 2500 ± 900 M⁻¹ s⁻¹ in [4]; 10000 ± 1000 M⁻¹ s⁻¹ in [5]; 7400 ± 600 M⁻¹ s⁻¹ in data set [6]. Further, the kcat/Km in data set [7] was found to be 600 ± 100 M⁻¹ s⁻¹; in data set [8] it was 50 ± 5 M⁻¹ s⁻¹.

B2: zHDAC10Δ (Danio rerio) (protein)
chain: MASGSALIFDEEMSRYKLLWTDPACEIEVPERLTVSYEALRTHGLAQRCKAVPVRQATEQEILLAHSEEYLEAVKQTPGMNVEELMAFSKKYNDVYFHQNIYHCAKLAAGATLQLVDSVMKREVRNGMALVRPPGHHSQRSAANGFCVFNNVAIAALYAKKNYNLNRILIVDWDVHHGQGIQYCFEEDPSVLYFSWHRYEHQSFWPNLPESDYSSVGKGKGSGFNINLPWNKVGMTNSDYLAAFFHVLLPVAYEFDPELVIVSAGFDSAIGDPEGEMCALPEIFAHLTHLLMPLAAGKMCVVLEGGYNLTSLGQSVCQTVHSLLGDPTPRISGLGTACDSALESIQNVRNVQSSYWSSFKHLAQSETNPKRPRLDATNGGPKESSEPASESNPKKTAQDIVWPEPLKRMPASVRTVVVPPPGVELTLPKNCQHSGDISESTAKEVQRIRDKHFHDLTDQNILRSLGNIISVLDRMMRSDEVCNGCVVVSDLSVSVQCALQHALTEPAERVLVVYVGDGELPVKTNDGKVFLVQICTKETEDKCVNRLSLCLREGESLTAGFMQALLGLILPVAYEFNPALVLGIVGETAAKTGLMTVWGHMTCLIQGLARGRTLTLLQGYDKDLLELTVSALSGASISPLGPLRALKPEDVEMMEKQRQRLQERWGLLRCTVSES
notes: proteolytically (trypsin) nicked zHDAC10, heterodimer of PDAC and pseudo-deacetylase domains
As to B2, the Km in [1] came out at 70 ± 30 µM; in data set [3], 60 ± 10 µM; in data set [9] it was 80 ± 30 µM; in [8], 40 ± 20 µM. Besides, the catalytic constant (kcat) in data set [1] amounted to 0.06 ± 0.007 s⁻¹; in [3], 0.036 ± 0.002 s⁻¹; in data set [9], 0.081 ± 0.009 s⁻¹. For the same protein, the values for the catalytic efficiency (kcat/Km) in [1], in data set [3] and in data set [9] were 800 ± 100 M⁻¹ s⁻¹, 600 ± 80 M⁻¹ s⁻¹ and 980 ± 90 M⁻¹ s⁻¹, respectively.

These data come from publication PMC5454378, “Histone deacetylase 10 structure and molecular function as a polyamine deacetylase” (Nature Communications, 2017).
